# The Immune Epitope Database (IEDB)
# pKd: −log10 of the molar value.
# Key:
# HLA-C*12:03 = experiment: IEDB peptide-MHC binding, purified MHC/direct/fluorescence; filed as Kd, often an IC50 or EC50 that approximates it; ≥ and ≤ were set here for values at or beyond the usual limits of such assays; settings: source organism: Vaccinia virus WR
# HLA-C*03:03 = experiment: as above
# HLA-A*02:01 = experiment: IEDB peptide-MHC binding, purified MHC/competitive/fluorescence; filed as Kd, often an IC50 or EC50 that approximates it; ≥ and ≤ were set here for values at or beyond the usual limits of such assays
# HLA-B*08:01 = experiment: as above; settings: source organism: Yersinia pestis Nepal516
# HLA-B*51:01 = experiment: as above
# HLA-B*07:02 = experiment: as above
# HLA-B*39:01 = experiment: as above
# HLA-B*35:01 = experiment: as above
# HLA-A*02:12 = experiment: as above
# HLA-A*69:01 = experiment: as above
# HLA-B*27:03 = experiment: as above
# HLA-B*18:01 = experiment: as above
# HLA-A*68:02 = experiment: as above; settings: source organism: Yersinia pestis Nepal516
# HLA-A*03:01 = experiment: as above
# HLA-A*26:01 = experiment: as above
# HLA-B*46:01 = experiment: as above
# HLA-B*15:01 = experiment: as above
# HLA-B*57:01 = experiment: as above
# HLA-A*24:03 = experiment: as above
# HLA-A*02:06 = experiment: as above; settings: source organism: Human immunodeficiency virus 1
# HLA-A*30:01 = experiment: as above; settings: source organism: Human immunodeficiency virus 1
# HLA-A*02:03 = experiment: as above; settings: source organism: Human immunodeficiency virus 1
# HLA-A*31:01 = experiment: as above; settings: source organism: Human immunodeficiency virus 1
# HLA-A*02:19 = experiment: as above; settings: source organism: Vibrio parahaemolyticus AQ3810
# HLA-A*29:02 = experiment: as above; settings: source organism: Vibrio parahaemolyticus AQ3810
# HLA-B*15:17 = experiment: as above; settings: source organism: Vibrio parahaemolyticus AQ3810
# HLA-A*02:11 = experiment: as above; settings: source organism: Entamoeba histolytica HM-1:IMSS
# [1] = source organism: Vaccinia virus WR
# [2] = source organism: Yersinia pestis Nepal516
# [3] = source organism: Bacillus cereus G9241
# [4] = source organism: Vibrio parahaemolyticus AQ3810
# [5] = source organism: Entamoeba histolytica HM-1:IMSS
sequence,measurement,setting,value
FLRDNLYHV,pKd,HLA-C*12:03,7.54
same,pKd,HLA-C*03:03; [1],≤ 4.70
same,pKd,HLA-A*02:01; [1],8.80
RLREALCAV,pKd,HLA-C*03:03; source organism: Mycobacterium tuberculosis str. Haarlem,≤ 4.70
LPLNRAYPL,pKd,HLA-B*08:01,7.22
same,pKd,HLA-B*51:01; [2],5.59
same,pKd,HLA-B*07:02; [2],8.20
same,pKd,HLA-B*39:01; [2],8.03
same,pKd,HLA-B*35:01; [2],≥ 10.00
IPLSILLTL,pKd,HLA-B*51:01; [3],6.02
same,pKd,HLA-B*07:02; [3],7.55
same,pKd,HLA-B*35:01; [3],9.40
ILHRLAPWI,pKd,HLA-B*51:01; [2],≤ 4.70
same,pKd,HLA-A*02:12; [2],6.99
same,pKd,HLA-A*69:01; [2],≤ 4.70
same,pKd,HLA-B*27:03; [2],≤ 4.70
same,pKd,HLA-A*02:01; [2],7.33
same,pKd,HLA-B*18:01; [2],≤ 4.70
same,pKd,HLA-A*68:02,≤ 4.70
same,pKd,HLA-A*03:01; [2],≤ 4.70
same,pKd,HLA-A*26:01; [2],≤ 4.70
same,pKd,HLA-B*46:01; [2],≤ 4.70
same,pKd,HLA-B*39:01; [2],≤ 4.70
same,pKd,HLA-B*15:01; [2],≤ 4.70
same,pKd,HLA-B*57:01; [2],≤ 4.70
QFMEGIYKL,pKd,HLA-A*24:03; source organism: Bacillus anthracis str. A0488,8.39
RMAATAQVL,pKd,HLA-C*03:03; source organism: Mycobacterium tuberculosis C,7.92
EKLKSLYNTI,pKd,HLA-A*02:06,5.43
same,pKd,HLA-A*30:01,7.14
same,pKd,HLA-A*02:03,7.62
same,pKd,HLA-B*39:01; source organism: Human immunodeficiency virus 1,6.13
same,pKd,HLA-A*31:01,5.35
MLTNASGHA,pKd,HLA-A*02:19,≤ 4.70
same,pKd,HLA-B*51:01; [4],≤ 4.70
same,pKd,HLA-A*02:12; [4],6.36
same,pKd,HLA-A*24:03; [4],≤ 4.70
same,pKd,HLA-A*69:01; [4],≤ 4.70
same,pKd,HLA-B*27:03; [4],≤ 4.70
same,pKd,HLA-A*02:01; [4],6.70
same,pKd,HLA-B*18:01; [4],≤ 4.70
same,pKd,HLA-A*03:01; [4],≤ 4.70
same,pKd,HLA-A*29:02,≤ 4.70
same,pKd,HLA-A*26:01; [4],≤ 4.70
same,pKd,HLA-B*46:01; [4],≤ 4.70
same,pKd,HLA-B*39:01; [4],≤ 4.70
same,pKd,HLA-B*15:17,≤ 4.70
same,pKd,HLA-B*15:01; [4],≤ 4.70
same,pKd,HLA-B*57:01; [4],≤ 4.70
TLPGCLIIL,pKd,HLA-B*51:01; [5],≤ 4.70
same,pKd,HLA-B*27:03; [5],≤ 4.70
same,pKd,HLA-B*18:01; [5],≤ 4.70
same,pKd,HLA-A*03:01; [5],≤ 4.70
same,pKd,HLA-A*26:01; [5],≤ 4.70
same,pKd,HLA-B*46:01; [5],≤ 4.70
same,pKd,HLA-B*39:01; [5],≤ 4.70
same,pKd,HLA-B*15:01; [5],≤ 4.70
same,pKd,HLA-A*02:11,5.33
same,pKd,HLA-B*57:01; [5],≤ 4.70
